Residue numbers refer to the chain shown, from its start.
B1: AB-009812 (antibody, mouse IgG2a, V domains shown)
VH: QVQLQQWGAGLLKPSETLSLTCAVYGGSFSDYYWSWIRQPPGKGLEWIGEVNHSGSINYNNYNPSLKSRVTISVDPSKNQFSLKLTSVTAADTAVYYCAKPLRPHCTNGVCYSGDAFDIWGQGTMVTVAS
VL: SYVLTQPPSVSVAPGQTARITCGGNNIGSKNVHWYQQKPGQAPVLVVYDDSDRPSGIPEQFSGSNSGNTATLTISRVEAGDEADYYCQVWDSSSDHLVFGGGTKLTVL
B2: AB-009813 (antibody, mouse IgG2a, V domains shown)
VH: B1 VH with S54A
VL: B1 VL
B3: AB-009815 (antibody, mouse IgG2a, V domains shown)
VH: B1 VH with S54R, P76T
VL: B1 VL
B4: AB-009808 (antibody, mouse IgG2a, V domains shown)
VH: QVQLQQWGAGLLKPSETLSLTCAVYGGSFSDYYWSWIRQPPGKGLEWIGEINHSGSTNYNPSLKSRVTISVDPSKNQFSLKLTSVTAADTAVYYCAKPFRPHCTNGVCYSGDAFDIWGQGTMVTVSS
VL: B1 VL
B5: AB-009807 (antibody, mouse IgG2a, V domains shown)
VH: B4 VH with S30N, I51V, N58S, P73T, T83S
VL: B1 VL with V44A
B6: AB-009805 (antibody, V domains shown)
VH: B4 VH with F29L, Y33H, P73T, T83S, T86S, Y109H, V123A
VL: B1 VL
B7: AB-008873 (mouse IgG2a format) (antibody, V domains shown)
VH: B1 VH with S54R
VL: SYVLTQPPSVSVAPGQTARITCGGNNIGSKNVHWYQQKPGQAPVLVVYDDSDRPSGIPEQFSGSNSGNTATLTISRVEAGDEADYYCQVWDSSSDHLVFGGGTKLTVLG
B8: AB-010363 (antibody, V domains shown)
VH: B1 VH with D31G, V51I, S54R, P76T, T86S
VL: B1 VL with Q60R, L97V
notes: Tested in mIgG2a format
B9: AB-010361 (antibody, mouse IgG2a, V domains shown)
VH: B1 VH with D31G, V51I, S54R, P76T, T86S
VL: B1 VL with L97V
notes: Tested with mouse IgG2a constant regions (mIgG2a format)
B10: AB-009814 (antibody, mouse IgG2a, V domains shown)
VH: B4 VH with I51V, S54R, T57I, F99L, S126A
VL: B1 VL
B11: AB-009812 (antibody, mouse IgG2a, V domains shown)
VH: B1 VH
VL: B1 VL
B12: AB-009816 (antibody, mouse IgG2a, V domains shown)
VH: B1 VH with S54R, P76A
VL: B1 VL
B13: AB-009813 (antibody, mouse IgG2a, V domains shown)
VH: B1 VH with S54A
VL: B1 VL
B14: AB-009815 (antibody, mouse IgG2a, V domains shown)
VH: B1 VH with S54R, P76T
VL: B1 VL

Molecular target: T1, Human EphA2 (ephrin receptor A2) (human, UniProt P29317 24-976)
T1 construct: Endogenous protein in frozen human tumor tissue and tumor adjacent tissue, not a recombinant construct
Assay: IHC/IF score on frozen human tumor tissue, UCEC-papillary

T1 sequence (P29317 24-976 limits assumed): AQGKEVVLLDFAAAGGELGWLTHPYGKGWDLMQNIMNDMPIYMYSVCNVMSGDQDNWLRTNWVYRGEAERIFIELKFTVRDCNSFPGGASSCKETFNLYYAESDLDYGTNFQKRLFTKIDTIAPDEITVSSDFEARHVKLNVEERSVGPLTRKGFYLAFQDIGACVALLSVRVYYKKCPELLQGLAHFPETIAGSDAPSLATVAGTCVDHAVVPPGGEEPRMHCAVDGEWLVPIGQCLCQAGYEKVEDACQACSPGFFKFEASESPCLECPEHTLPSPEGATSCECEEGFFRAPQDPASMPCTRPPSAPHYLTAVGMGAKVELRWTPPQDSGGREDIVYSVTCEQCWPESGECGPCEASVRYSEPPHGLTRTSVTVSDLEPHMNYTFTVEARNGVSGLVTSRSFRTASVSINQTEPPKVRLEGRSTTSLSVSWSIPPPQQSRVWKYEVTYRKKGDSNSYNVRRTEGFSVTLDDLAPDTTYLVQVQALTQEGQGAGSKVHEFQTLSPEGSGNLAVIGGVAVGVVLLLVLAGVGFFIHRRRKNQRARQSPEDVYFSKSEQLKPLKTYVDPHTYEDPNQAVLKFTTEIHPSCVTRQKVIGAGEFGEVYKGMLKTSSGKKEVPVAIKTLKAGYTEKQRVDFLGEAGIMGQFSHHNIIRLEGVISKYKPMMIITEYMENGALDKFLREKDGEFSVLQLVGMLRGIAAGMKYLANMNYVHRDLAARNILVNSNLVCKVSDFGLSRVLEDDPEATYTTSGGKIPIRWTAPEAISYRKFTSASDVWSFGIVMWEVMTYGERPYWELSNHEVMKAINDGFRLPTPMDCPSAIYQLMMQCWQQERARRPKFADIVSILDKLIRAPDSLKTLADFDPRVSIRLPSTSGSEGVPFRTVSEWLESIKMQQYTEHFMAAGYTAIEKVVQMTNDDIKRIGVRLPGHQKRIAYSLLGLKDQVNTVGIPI

Row | IHC score | Binder
1 | 2 | B1
2 | 2 | B2
3 | 2 | B3

Molecular target: T1, Human EphA2 (ephrin receptor A2)
Assay: IHC/IF score on frozen human tumor tissue, HNC

Row | IHC score | Binder
4 | 2 | B1
5 | 2 | B2
6 | 2 | B3

Molecular target: T1, Human EphA2 (ephrin receptor A2)
Assay: IHC/IF score on frozen human tumor tissue, ER+ BRC

Row | IHC score | Binder
7 | 1 | B1
8 | 1 | B2
9 | 1 | B3

Molecular target: T1, Human EphA2 (ephrin receptor A2)
Assay: IHC/IF score on frozen human tumor tissue, UCEC-endometriod

Row | IHC score | Binder
10 | 1 | B1
11 | 1 | B2
12 | 1 | B3

Molecular target: T1, Human EphA2 (ephrin receptor A2)
Assay: IHC/IF score on frozen human tumor tissue, RCC-clear cell

Row | IHC score | Binder
13 | 1 | B1
14 | 1 | B2
15 | 1 | B3

Molecular target: T1, Human EphA2 (ephrin receptor A2)
Assay: IHC/IF score on frozen human tumor tissue, TNBC

Row | IHC score | Binder
16 | 1 | B1
17 | 1 | B2
18 | 1 | B3

Molecular target: T1, Human EphA2 (ephrin receptor A2)
Assay: IHC/IF score on frozen human tumor tissue, URO

Row | IHC score | Binder
19 | 1 | B1
20 | 1 | B2
21 | 1 | B3

Molecular target: T1, Human EphA2 (ephrin receptor A2)
Assay: IHC/IF score on frozen human tumor tissue, OVA

Row | IHC score | Binder
22 | 2 | B1
23 | 2 | B2
24 | 2 | B3

Molecular target: T1, Human EphA2 (ephrin receptor A2)
Assay: IHC/IF score on frozen human tumor tissue, PROC

Row | IHC score | Binder
25 | 1 | B1
26 | 1 | B2
27 | 1 | B3

Molecular target: T1, Human EphA2 (ephrin receptor A2)
Assay: IHC/IF score on frozen human tumor tissue, RCC-papillary

Row | IHC score | Binder
28 | 1 | B1
29 | 1 | B2
30 | 1 | B3

Molecular target: T2, human EphA2 (ephrin receptor A2), on cells (human, UniProt P29317 24-976)
T2 construct: Used for HEK293 transfectants, A549 and other human tumor cell lines
Assay: flow cytometry binding on A549 cells
Description: (§1) Surface binding of the antibodies to in vitro grown cell lines was assessed by flow cytometry. Tumor cells were detached from their culture plate using Versene and counted. Cells were staining in BSA-containing buffer with primary antibody for 30 minutes at 4° C. with shaking. Following, cells were washed and stained with secondary PE-labeled antibody for 30 minutes at 4° C. with shaking. Before analysis on an Intellicyt iQue3 scanner, cells were counterstained with DAPI. MedFI values from live, single cells was expressed as fold over isotype control.

T2 sequence (P29317 24-976 limits assumed): as above

Row | Flow Delta activity (MedFI) | Binder
31 | 29500 | B4
32 | 12700 | B5
33 | 75100 | B6

Molecular target: T1, Human EphA2 (ephrin receptor A2)
Assay: IHC/IF score on frozen human tumor tissue, NSCLC-SQ

Row | IHC score | Binder
34 | 1 | B1
35 | 1 | B2
36 | 1 | B3

Molecular target: T1, Human EphA2 (ephrin receptor A2)
Assay: IHC/IF score on frozen human tumor tissue, GAC

Row | IHC score | Binder
37 | 2 | B1
38 | 2 | B2
39 | 2 | B3

Molecular target: T3, C-terminally His-tagged hEphA2-FN2 (Thr437-Asn534+His tag) (human, UniProt P29317 437-534)
T3 construct: SPR analyte; also called FN2 domain of hEphA2
Assay: SPR Biacore T200, 25 C, mIgG2a captured by anti-mouse Fc, FN2-His as analyte, steady-state fit, monovalent
Description: Binding of antibodies to the FN2 domain of hEphA2 was measured using the Biacore® T200 SPR system at 25° C. using HBS-EP+ buffer (0.01 M HEPES pH 7.4, 0.15 M NaCl, 3 mM EDTA, 0.005% v/v Surfactant P20). Antibodies in mIgG2a format were captured at levels between 475-715 RU via an anti-mouse Fc antibody immobilized to a CM5 chip. Binding was assessed using a titration of C-terminally His-tagged hEphA2-FN2 (Thr437-Asn534+His tag) associated for 30 s or 75 s at 30 uL/min. Data was double-reference subtracted using both a surface without captured antibody and from injections of HBS-EP+ buffer. The equilibrium response was measured at 4 seconds before the end of association with a window of 5 seconds and fit using the Biacore T200 Evaluation Software 3.1 with the Steady State Affinity Model.

T3 sequence (P29317 437-534 limits assumed): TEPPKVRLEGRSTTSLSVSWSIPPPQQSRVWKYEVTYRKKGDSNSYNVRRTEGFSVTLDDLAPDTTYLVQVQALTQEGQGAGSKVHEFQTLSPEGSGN

Row | Kd [nM] | Binder
40 | 2260 | B7
41 | 1310 | B8
42 | 1110 | B9

Molecular target: T1, Human EphA2 (ephrin receptor A2)
Assay: IHC/IF score on frozen human tumor tissue, Her2+ BRC

Row | IHC score | Binder
43 | 2 | B1
44 | 1 | B2
45 | 2 | B3

Molecular target: T1, Human EphA2 (ephrin receptor A2)
Assay: IHC/IF score on frozen human tumor tissue, ANC

Row | IHC score | Binder
46 | 2 | B1
47 | 2 | B2
48 | 2 | B3

Molecular target: T1, Human EphA2 (ephrin receptor A2)
Assay: IHC/IF score on frozen human tumor tissue, ESC

Row | IHC score | Binder
49 | 2 | B1
50 | 2 | B2
51 | 2 | B3

Molecular target: T1, Human EphA2 (ephrin receptor A2)
Assay: IHC/IF score on frozen human tumor tissue, MELA

Row | IHC score | Binder
52 | 2 | B1
53 | 2 | B2
54 | 2 | B3

Molecular target: T1, Human EphA2 (ephrin receptor A2)
Assay: IHC/IF score on frozen human tumor tissue, UCEC-clear cell

Row | IHC score | Binder
55 | 1 | B1
56 | 2 | B2
57 | 2 | B3

Molecular target: T2, human EphA2 (ephrin receptor A2), on …
Assay: flow cytometry on A549 cells
Description: as §1

Row | Delta (flow) | EC50 [nM] | Binder
58 | 407000 | 11.5 | B10
59 | 568000 | 9.6 | B11
60 | 670000 | 5.5 | B12
61 | 578000 | 6.8 | B13
62 | 745000 | 5.5 | B14

Molecular target: T1, Human EphA2 (ephrin receptor A2)
Assay: IHC/IF score on frozen human tumor tissue, PANC

Row | IHC score | Binder
63 | 1 | B1
64 | 1 | B2
65 | 1 | B3

Molecular target: T1, Human EphA2 (ephrin receptor A2)
Assay: IHC/IF score on frozen human tumor tissue, STS

Row | IHC score | Binder
66 | 2 | B1
67 | 2 | B2
68 | 2 | B3

Molecular target: T1, Human EphA2 (ephrin receptor A2)
Assay: IHC/IF score on frozen human tumor tissue, CRC

Row | IHC score | Binder
69 | 1 | B1
70 | 1 | B2
71 | 1 | B3

Molecular target: T1, Human EphA2 (ephrin receptor A2)
Assay: IHC/IF score on frozen human tumor tissue, NSCLC-Adeno

Row | IHC score | Binder
72 | 2 | B1
73 | 2 | B2
74 | 2 | B3
